Measurements published in paper PMC2950884 (Nature structural & molecular biology, 2010).
Substitutions are numbered along the chain they refer to. Names and notes keep the numbering of the source.

B1: Pcf11 CTD-interacting domain (domain or fragment, S. cerevisiae, UniProt P39081 4-139, looked up)
chain: DTEVIVKDFNSILEELTFNSRPIITTLTKLAEENISCAQYFVDAIESRIEKCMPKQKLYAFYALDSICKNVGSPYTIYFSRNLFNLYKRTYLLVDNTTRTKLINMFKLWLNPNDTGLPLFEGSALEKIEQFLIKAS
B2: Pcf11-CID (N107R): Pcf11 with arginine in place of Asn107; CID in vitro, TAP tagged protein in ChIP (protein)
chain: B1 chain with N104R
B3: Pcf11(D117A)-CID (domain or fragment)
chain: B1 chain with D114A
B4: Pcf11(D117K)-CID (domain or fragment)
chain: B1 chain with D114K
B5: Rtt103 CTD-interacting domain (residues 1-131) (domain or fragment)
chain: MPFSSEQFTTKLNTLEDSQESISSASKWLLLQYRDAPKVAEMWKEYMLRPSVNTRRKLLGLYLMNHVVQQAKGQKIIQFQDSFGKVAAEVLGRINQEFPRDLKKKLSRVVNILKERNIFSKQVVNDIERSL
B6: Rtt103(E115R)-CID (domain or fragment)
chain: B5 chain with E115R
B7: Rtt103-CID (R108N) (domain or fragment)
chain: B5 chain with R108N

Experiments:
[1] = target: Rtt103 CTD-interacting domain (residues 1-131) (S. cerevisiae) (UniProt Q05543); test: NMR titration
[2] = target: Pcf11-CID (N107R) (S. cerevisiae) (UniProt P39081); test: NMR titration
[3] = target: Pcf11 CTD-interacting domain (S. cerevisiae) (UniProt P39081); test: NMR titration
[4] = target: four heptad repeat Ser2P CTD peptide; test: fluorescence polarisation
[5] = target: Ser2abP/Ser5abP-CTD diheptad repeat peptide; test: fluorescence polarisation
[6] = target: Ser2abP-CTD diheptad repeat peptide (phosphorylated at both Ser2 positions); test: fluorescence polarisation
AUC = target: the molecule itself; test: AUC
PMA1 gene = test: ChIP of TAP tagged proteins, 3′-end recruitment; assay type: cell-based, yeast
ADH1 gene = test: ChIP of TAP tagged proteins, 3′-end recruitment; assay type: cell-based, yeast
[7] = target: Ser5abP-CTD diheptad repeat peptide; test: fluorescence polarisation
[8] = target: four heptad repeat Ser2P CTD peptide; test: NMR relaxation
[9] = untagged wild-type Pcf11 present

| Molecule | Kd [1] [µM] | Kd [3] [µM] | Kd1 (first binding event) [4] [µM] | Kd2 (second binding event) [4] [µM] | other results |
| --- | --- | --- | --- | --- | --- |
| Ser2abP-CTD diheptad repeat peptide (phosphorylated at both Ser2 positions) | 15 | 160 |  |  | Kd [2]: 24 µM |
| Ser5abP-CTD diheptad repeat peptide |  | 1200 |  |  |  |
| Ser2bP-CTD diheptad repeat peptide | 76 | 240 |  |  |  |
| Ser2aP-CTD diheptad repeat peptide | 420 | 1400 |  |  |  |
| Ser2abP/Ser5abP-CTD diheptad repeat peptide | 41 | 630 |  |  |  |
| B1 |  |  | 50 | 140 | Kd [5]: 370 µM; Kd [6]: 130 µM; stoichiometry N (AUC): 2 |
| B2 |  |  |  |  | Increase of 3′-end recruitment compared with wild type Pcf11-TAP (factor) (PMA1 gene; [9]): > 2; Increase of 3′-end recruitment compared with wild type Pcf11-TAP (factor) (ADH1 gene; [9]): > 2 |
| B3 |  |  | 40 | 430 |  |
| B4 |  |  | 30 | 130 |  |
| B5 |  |  | 3 | 20 | Kd [7]: 122 µM; Kd [5]: 53 µM; Kd [6]: 2.1 µM; stoichiometry N (proteins per peptide) [8]: 2 |
| B6 |  |  | 1.8 | > 1000 | stoichiometry N (protein per peptide) [8]: 1 |
| B7 |  |  |  |  | Kd [6]: 100 µM; Reduction of 3′-end recruitment compared with wild type (factor) (PMA1 gene): 8; Reduction of 3′-end recruitment compared with wild type (factor) (ADH1 gene): 5 |
